We go through six molecules from patent US8067155B2, “Receptor tyrosine kinase assays” (DiscoveRx Corporation, priority 2008, dated 2011).

Broadly, the EC50 is the concentration at which the effect is half-maximal.

In assay [1] the target is TrkB fused to a low affinity small fragment of β-galactosidase (TrkB-PK) (UniProt Q16620). Put plainly: cell-based or functional assay.
The target of assay [2] is T1, TrkC (Homo sapiens, UniProt Q16288).
T1 construct: host or cells: U2OS
Put plainly: PathHunter TrkC-PK / SH2-containing protein-EA assay in U2OS cells, agonist mode. In kind it is cell-based. Conditions: 3 hours at room temperature. The method, then:
FIG. 8 is a graph of the dose response in U2OS cells of TrkC fused to a low affinity small fragment of β-galactosidase (TrkC-PK). Cells were plated in a 384-well plate at 10,000 cells/well, stimulated with NT3 (Peprotech, Cat #/450-03), a known ligand for TrkC, for 3 hours at room temperature according to the assay procedure provided. Following stimulation, detection reagents were added and signal was detected after 1 hour using the PathHunter® Detection Kit (93-0001).
(§1) Generally, the expression constructs for the fusion proteins includes at least (in order of 5′ to 3′) a promoter, followed by the receptor or SH2 domain, followed by a linker, followed by either the EA or PK. […] SH2-EA complex formation with the RTK was detected with 50% (v/v) of PathHunter® Detection Reagent (Dx 93-0001, PathHunter reagents are available from DiscoveRx, Corp., Fremont, Calif.) (Lysis buffer active ingredient 1% CHAPS, Emerald II™ and Galacton Star™ are from Applied Biosystems).
10K cells/well TrkC-PK SH2-containing protein-EA double stable cells were plated in a 384-well plate, stimulated with NT3 (Peprotech, Cat #/450-03), a known ligand for TrkC for 3 hours at room temperature according to the assay procedure provided. Following stimulation, detection reagents were added and signal was detected after 1 hour using the PathHunter® Detection Kit (93-0001).

Assay [3] has as its target T2, insulin receptor (INSR) (Homo sapiens, UniProt P06213).
T2 construct: host or cells: U2OS
The assay can be described thus: PathHunter INSR-PK / SH2-containing protein-EA assay in U2OS cells, agonist mode. In kind it is cell-based. Conditions: U2OS INSR-PK cells, 10,000 cells/well, 3 hours at room temperature.

The target in assay [4] is TrkC fused to a low affinity small fragment of β-galactosidase (TrkC-PK) (UniProt Q16288). Put plainly: cell-based or functional assay.
In assay [5] the target is G-CSFR (granulocyte-colony stimulating factor receptor) fused to a low affinity small fragment of … (UniProt Q99062 25-836, tyrosine-phosphorylated on activation (by Jak2); sites not stated). Put plainly: cell-based or functional assay.
Assay [6] deals with T3, TrkB (Homo sapiens, UniProt Q16620).
T3 construct: host or cells: U2OS
Put plainly: PathHunter TrkB-PK / SH2-containing protein-EA assay in U2OS cells, agonist mode. In kind it is cell-based. Conditions: 3 hours at room temperature. The method, then: FIG. 7 is a graph of the dose response in U2OS cells of TrkB fused to a low affinity small fragment of β-galactosidase (TrkB-PK). Cells were plated in a 384-well plate at 10,000 cells/well stimulated with BDNF (Peprotech, Cat #/450-02), a known ligand for TrkB, for 3 hours at room temperature according to the assay procedure provided. Following stimulation, detection reagents were added and signal was detected after 1 hour using the PathHunter® Detection Kit (93-0001).
as §1
10K cells/well TrkB-PK SH2-containing protein-EA double stable cell were plated in a 384-well plate, stimulated with BDNF (Peprotech, Cat #/450-02), a known ligand for TrkB for 3 hours at room temperature according to the assay procedure provided. Following stimulation, detection reagents were added and signal was detected after 1 hour using the PathHunter® Detection Kit (93-0001).

Sequence of G-CSFR (granulocyte-colony stimulating factor receptor) fused to a low affinity small fragment of … (Q99062 other isoform, or with tags, fused parts or gaps): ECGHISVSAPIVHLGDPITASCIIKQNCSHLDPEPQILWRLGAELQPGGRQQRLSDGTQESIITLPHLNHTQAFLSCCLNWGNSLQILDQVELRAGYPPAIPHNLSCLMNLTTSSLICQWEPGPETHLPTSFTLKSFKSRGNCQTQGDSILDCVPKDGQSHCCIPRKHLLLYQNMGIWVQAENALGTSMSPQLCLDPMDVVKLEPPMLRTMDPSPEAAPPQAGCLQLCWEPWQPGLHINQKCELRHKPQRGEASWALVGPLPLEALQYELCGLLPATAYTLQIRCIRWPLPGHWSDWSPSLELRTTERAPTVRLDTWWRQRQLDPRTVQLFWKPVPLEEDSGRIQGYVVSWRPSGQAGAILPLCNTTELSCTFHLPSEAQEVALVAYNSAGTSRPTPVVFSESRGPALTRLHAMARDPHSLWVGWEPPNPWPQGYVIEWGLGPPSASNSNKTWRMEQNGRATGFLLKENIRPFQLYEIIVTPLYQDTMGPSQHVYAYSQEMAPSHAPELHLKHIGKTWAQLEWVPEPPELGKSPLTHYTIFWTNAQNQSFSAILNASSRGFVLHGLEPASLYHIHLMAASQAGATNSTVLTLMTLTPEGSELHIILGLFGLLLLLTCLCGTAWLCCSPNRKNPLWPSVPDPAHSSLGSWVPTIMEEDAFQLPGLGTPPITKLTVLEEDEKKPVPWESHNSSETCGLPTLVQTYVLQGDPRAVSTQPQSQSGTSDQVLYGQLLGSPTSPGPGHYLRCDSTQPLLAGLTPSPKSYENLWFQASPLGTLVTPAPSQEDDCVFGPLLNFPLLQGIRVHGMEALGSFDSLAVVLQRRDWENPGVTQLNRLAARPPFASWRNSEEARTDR

Turning to “BDNF (Peprotech, Cat #/450-02) (from UniProt P23560 129-247) (ligand)”, in assay [1], the EC50 of the BDNF dose response (PathHunter β-galactosidase complementation of TrkB-PK and SH2-containing protein-EA in U2OS cells) was 4.21 ng/mL; the assay window of the BDNF dose response (PathHunter β-galactosidase complementation of TrkB-PK and SH2-containing protein-EA in U2OS cells) was 4 fold. “NT3: NT3 (Peprotech, Cat 450-03), a known ligand for TrkC” displayed an EC50 in assay [2] (U2OS TrkC-PK cells, 10,000 cells/well) of 7 ng/mL. Besides, in assay [2] (U2OS TrkC-PK cells), the assay window is recorded as 8.1 fold.

“IGF1: IGF1 (Peprotech, Cat AF-100-11), a known ligand for IGF1R” yielded an EC50 in assay [3] of 2.0 ng/mL. In assay [4], “NT3 (Peprotech, Cat #/450-03) (from UniProt P20783 139-257) (ligand)” yielded an EC50 of the NT3 dose response (PathHunter β-galactosidase complementation of TrkC-PK and SH2-containing protein-EA in U2OS cells) of 7 ng/mL; an assay window of the NT3 dose response (PathHunter β-galactosidase complementation of TrkC-PK and SH2-containing protein-EA in U2OS cells) of 8.1 fold.

B1: G-CSF (Peprotech 300-23) (ligand, UniProt P09919-2 31-204, looked up)
chain: TPLGPASSLPQSFLLKCLEQVRKIQGDGAALQEKLCATYKLCHPEELVLLGHSLGIPWAPLSSCPSQALQLAGCLSQLHSGLFLYQGLLQALEGISPELGPTLDTLQLDVADFATTIWQQMEELGMAPALQPTQGAMPAFASAFQRRAGGVLVASHLQSFLEVSYRVLRHLAQP
For the molecule B1, in assay [5], the “EC50 of the G-CSF dose response (PathHunter β-galactosidase complementation of CSF3R-PK and SHC1-EA in U2OS cells, Jak2 construct)” value is 4 ng/mL; the “assay window of the G-CSF dose response (PathHunter β-galactosidase complementation of CSF3R-PK and SHC1-EA in U2OS cells, Jak2 construct)” value stood at 7 fold.

B2: BDNF: BDNF (Peprotech, Cat 450-02), a known ligand for TrkB (protein, UniProt P23560 19-247, looked up)
Neurotrophic factor BDNF …: APMKEANIRGQGGLAYPGVRTHGTLESVNGPKAGSRGLTSLADTFEHVIEELLDEDQKVRPNEENNKDADLYTSRVMLSSQVPLEPPLLFLLEEYKNYLDAANMSMRVRRHSDPARRGELSVCDSISEWVTAADKKTAVDMSGGTVTVLEKVPVSKGQLKQYFYETKCNPMGYTKEGCRGIDKRHWNSQCRTTQSYVRALTMDSKKRIGWRFIRIDTSCVCTLTIKRGR
Molecule B2 registered an EC50 in assay [6] (U2OS TrkB-PK cells, 10,000 cells/well) of 4.21 ng/mL. The molecule further gave an assay window in assay [6] (U2OS TrkB-PK cells) of 4.0 fold.
